According to IntAct's records for PubMed 28712572:

target: gbrap_human GABARAP (UniProt O95166)
Sequence (O95166 whole entry): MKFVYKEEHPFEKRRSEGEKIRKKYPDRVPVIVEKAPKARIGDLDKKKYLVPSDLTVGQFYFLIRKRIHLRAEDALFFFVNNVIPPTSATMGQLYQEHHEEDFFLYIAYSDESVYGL

Question: “Pericentriolar material 1 protein (Homo sapiens), Q15154 L1971Q” was tested. Which “effect of a mutation on the interaction” value did it give?
Answer: with no effect

Question: “Pericentriolar material 1 protein (Homo sapiens), Q15154 L1971R” was tested. Which “effect of a mutation on the interaction” value did it give?
Answer: with no effect

Question: For “Pericentriolar material 1 protein (Homo sapiens), Q15154 L1971S”, which “effect of a mutation on the interaction” value is on record?
Answer: with no effect

Question: For “Pericentriolar material 1 protein (Homo sapiens), Q15154 L1971T”, which “effect of a mutation on the interaction” value is on record?
Answer: with no effect

Question: How did the “effect of a mutation on the interaction” value turn out when “Pericentriolar material 1 protein (Homo sapiens), Q15154 L1971V” was run?
Answer: with no effect

Question: How did the “effect of a mutation on the interaction” value turn out when “Pericentriolar material 1 protein (Homo sapiens), Q15154 L1971W” was run?
Answer: with no effect

Question: Which “effect of a mutation on the interaction” value does the source give for “Pericentriolar material 1 protein (Homo sapiens), Q15154 L1971Y” here?
Answer: with no effect

Question: For “Pericentriolar material 1 protein (Homo sapiens), Q15154 L1973A”, which “effect of a mutation on the interaction” value is on record?
Answer: with no effect

Question: How did the “effect of a mutation on the interaction” value turn out when “Pericentriolar material 1 protein (Homo sapiens), Q15154 L1973C” was run?
Answer: with no effect

Question: How did the “effect of a mutation on the interaction” value turn out when “Pericentriolar material 1 protein (Homo sapiens), Q15154 L1973D” was run?
Answer: with no effect

Question: Which “effect of a mutation on the interaction” value does the source give for “Pericentriolar material 1 protein (Homo sapiens), Q15154 L1973E” here?
Answer: with no effect

Question: How did the “effect of a mutation on the interaction” value turn out when “Pericentriolar material 1 protein (Homo sapiens), Q15154 L1973F” was run?
Answer: with no effect

Question: How did the “effect of a mutation on the interaction” value turn out when “Pericentriolar material 1 protein (Homo sapiens), Q15154 L1973G” was run?
Answer: with no effect

Question: Which “effect of a mutation on the interaction” value does the source give for “Pericentriolar material 1 protein (Homo sapiens), Q15154 L1973H” here?
Answer: with no effect

Question: For “Pericentriolar material 1 protein (Homo sapiens), Q15154 L1973I”, which “effect of a mutation on the interaction” value is on record?
Answer: with no effect

Question: “Pericentriolar material 1 protein (Homo sapiens), Q15154 L1973K” was tested. Which “effect of a mutation on the interaction” value did it give?
Answer: with no effect

Question: With “Pericentriolar material 1 protein (Homo sapiens), Q15154 L1973M” as the substance, how does the “effect of a mutation on the interaction” value read?
Answer: with no effect

Question: Which “effect of a mutation on the interaction” value does the source give for “Pericentriolar material 1 protein (Homo sapiens), Q15154 L1973N” here?
Answer: with no effect

Question: With “Pericentriolar material 1 protein (Homo sapiens), Q15154 L1973P” as the substance, how does the “effect of a mutation on the interaction” value read?
Answer: with no effect

Question: Which “effect of a mutation on the interaction” value does the source give for “Pericentriolar material 1 protein (Homo sapiens), Q15154 L1973Q” here?
Answer: with no effect

Question: With “Pericentriolar material 1 protein (Homo sapiens), Q15154 L1973R” as the substance, how does the “effect of a mutation on the interaction” value read?
Answer: with no effect

Question: “Pericentriolar material 1 protein (Homo sapiens), Q15154 L1973S” was tested. Which “effect of a mutation on the interaction” value did it give?
Answer: with no effect

Question: How did the “effect of a mutation on the interaction” value turn out when “Pericentriolar material 1 protein (Homo sapiens), Q15154 L1973T” was run?
Answer: with no effect

Question: For “Pericentriolar material 1 protein (Homo sapiens), Q15154 L1973V”, which “effect of a mutation on the interaction” value is on record?
Answer: with no effect

Question: “Pericentriolar material 1 protein (Homo sapiens), Q15154 L1973W” was tested. Which “effect of a mutation on the interaction” value did it give?
Answer: with no effect

Question: “Pericentriolar material 1 protein (Homo sapiens), Q15154 L1973Y” was tested. Which “effect of a mutation on the interaction” value did it give?
Answer: with no effect

Question: With “Pericentriolar material 1 protein (Homo sapiens), Q15154 N1953A” as the substance, how does the “effect of a mutation on the interaction” value read?
Answer: with no effect

Question: “Pericentriolar material 1 protein (Homo sapiens), Q15154 N1953C” was tested. Which “effect of a mutation on the interaction” value did it give?
Answer: with no effect

Question: Which “effect of a mutation on the interaction” value does the source give for “Pericentriolar material 1 protein (Homo sapiens), Q15154 N1953D” here?
Answer: with no effect

Question: How did the “effect of a mutation on the interaction” value turn out when “Pericentriolar material 1 protein (Homo sapiens), Q15154 N1953E” was run?
Answer: with no effect

Question: Which “effect of a mutation on the interaction” value does the source give for “Pericentriolar material 1 protein (Homo sapiens), Q15154 N1953F” here?
Answer: with no effect

Question: With “Pericentriolar material 1 protein (Homo sapiens), Q15154 N1953G” as the substance, how does the “effect of a mutation on the interaction” value read?
Answer: with no effect

Question: “Pericentriolar material 1 protein (Homo sapiens), Q15154 N1953H” was tested. Which “effect of a mutation on the interaction” value did it give?
Answer: with no effect

Question: Which “effect of a mutation on the interaction” value does the source give for “Pericentriolar material 1 protein (Homo sapiens), Q15154 N1953I” here?
Answer: with no effect

Question: For “Pericentriolar material 1 protein (Homo sapiens), Q15154 N1953K”, which “effect of a mutation on the interaction” value is on record?
Answer: with no effect

Question: “Pericentriolar material 1 protein (Homo sapiens), Q15154 N1953L” was tested. Which “effect of a mutation on the interaction” value did it give?
Answer: with no effect

Question: “Pericentriolar material 1 protein (Homo sapiens), Q15154 N1953M” was tested. Which “effect of a mutation on the interaction” value did it give?
Answer: with no effect

Question: For “Pericentriolar material 1 protein (Homo sapiens), Q15154 N1953P”, which “effect of a mutation on the interaction” value is on record?
Answer: with no effect

Question: Which “effect of a mutation on the interaction” value does the source give for “Pericentriolar material 1 protein (Homo sapiens), Q15154 N1953Q” here?
Answer: with no effect

Question: “Pericentriolar material 1 protein (Homo sapiens), Q15154 N1953R” was tested. Which “effect of a mutation on the interaction” value did it give?
Answer: with no effect

Question: With “Pericentriolar material 1 protein (Homo sapiens), Q15154 N1953S” as the substance, how does the “effect of a mutation on the interaction” value read?
Answer: with no effect

Question: “Pericentriolar material 1 protein (Homo sapiens), Q15154 N1953T” was tested. Which “effect of a mutation on the interaction” value did it give?
Answer: with no effect

Question: Which “effect of a mutation on the interaction” value does the source give for “Pericentriolar material 1 protein (Homo sapiens), Q15154 N1953V” here?
Answer: with no effect

Question: “Pericentriolar material 1 protein (Homo sapiens), Q15154 N1953W” was tested. Which “effect of a mutation on the interaction” value did it give?
Answer: with no effect

Question: Which “effect of a mutation on the interaction” value does the source give for “Pericentriolar material 1 protein (Homo sapiens), Q15154 N1953Y” here?
Answer: with no effect

Question: For “Pericentriolar material 1 protein (Homo sapiens), Q15154 P1970A”, which “effect of a mutation on the interaction” value is on record?
Answer: decreasing interaction strength

Question: Which “effect of a mutation on the interaction” value does the source give for “Pericentriolar material 1 protein (Homo sapiens), Q15154 P1970C” here?
Answer: with no effect

Question: For “Pericentriolar material 1 protein (Homo sapiens), Q15154 P1970D”, which “effect of a mutation on the interaction” value is on record?
Answer: decreasing interaction strength

Question: Which “effect of a mutation on the interaction” value does the source give for “Pericentriolar material 1 protein (Homo sapiens), Q15154 P1970E” here?
Answer: decreasing interaction strength

Question: “Pericentriolar material 1 protein (Homo sapiens), Q15154 P1970F” was tested. Which “effect of a mutation on the interaction” value did it give?
Answer: with no effect

Question: For “Pericentriolar material 1 protein (Homo sapiens), Q15154 P1970G”, which “effect of a mutation on the interaction” value is on record?
Answer: decreasing interaction strength

Question: Which “effect of a mutation on the interaction” value does the source give for “Pericentriolar material 1 protein (Homo sapiens), Q15154 P1970H” here?
Answer: with no effect

Question: With “Pericentriolar material 1 protein (Homo sapiens), Q15154 P1970I” as the substance, how does the “effect of a mutation on the interaction” value read?
Answer: decreasing interaction strength

Question: How did the “effect of a mutation on the interaction” value turn out when “Pericentriolar material 1 protein (Homo sapiens), Q15154 P1970K” was run?
Answer: disrupting interaction strength

Question: For “Pericentriolar material 1 protein (Homo sapiens), Q15154 P1970L”, which “effect of a mutation on the interaction” value is on record?
Answer: decreasing interaction strength

Question: “Pericentriolar material 1 protein (Homo sapiens), Q15154 P1970M” was tested. Which “effect of a mutation on the interaction” value did it give?
Answer: decreasing interaction strength

Question: With “Pericentriolar material 1 protein (Homo sapiens), Q15154 P1970N” as the substance, how does the “effect of a mutation on the interaction” value read?
Answer: decreasing interaction strength

Question: With “Pericentriolar material 1 protein (Homo sapiens), Q15154 P1970Q” as the substance, how does the “effect of a mutation on the interaction” value read?
Answer: decreasing interaction strength

Question: How did the “effect of a mutation on the interaction” value turn out when “Pericentriolar material 1 protein (Homo sapiens), Q15154 P1970R” was run?
Answer: decreasing interaction strength

Question: “Pericentriolar material 1 protein (Homo sapiens), Q15154 P1970S” was tested. Which “effect of a mutation on the interaction” value did it give?
Answer: disrupting interaction strength

Question: With “Pericentriolar material 1 protein (Homo sapiens), Q15154 P1970T” as the substance, how does the “effect of a mutation on the interaction” value read?
Answer: disrupting interaction strength

Question: With “Pericentriolar material 1 protein (Homo sapiens), Q15154 P1970V” as the substance, how does the “effect of a mutation on the interaction” value read?
Answer: disrupting interaction strength

Question: Which “effect of a mutation on the interaction” value does the source give for “Pericentriolar material 1 protein (Homo sapiens), Q15154 P1970W” here?
Answer: with no effect

Question: For “Pericentriolar material 1 protein (Homo sapiens), Q15154 P1970Y”, which “effect of a mutation on the interaction” value is on record?
Answer: disrupting interaction strength

Question: For “Pericentriolar material 1 protein (Homo sapiens), Q15154 Q1956A”, which “effect of a mutation on the interaction” value is on record?
Answer: with no effect

Question: Which “effect of a mutation on the interaction” value does the source give for “Pericentriolar material 1 protein (Homo sapiens), Q15154 Q1956C” here?
Answer: with no effect

Question: Which “effect of a mutation on the interaction” value does the source give for “Pericentriolar material 1 protein (Homo sapiens), Q15154 Q1956D” here?
Answer: with no effect

Question: “Pericentriolar material 1 protein (Homo sapiens), Q15154 Q1956E” was tested. Which “effect of a mutation on the interaction” value did it give?
Answer: with no effect

Question: For “Pericentriolar material 1 protein (Homo sapiens), Q15154 Q1956F”, which “effect of a mutation on the interaction” value is on record?
Answer: with no effect
